± gives the standard deviation of the averaged measurements.
Legend:
[1] = tested on: VchCAST RNA-guided transposition machinery (E. coli BL21(DE3) host, lacZ target); assay: relative integration efficiency (T-LR orientation) vs wild-type transposon end (log2 (normalized fold change)); transposon end mutated: left end; higher = more efficient transposition
Outline: (§1)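 Barcoded pools of 1549 left-end or 1849 right-end transposon variants were cloned into a pUC57 mini-transposon donor. Each pool was co-transformed with a T7-driven effector plasmid (CRISPR array, tniQ-cas8-cas7-cas6, tnsA-tnsB-tnsC) into E. coli BL21(DE3) and plated with 0.1 mM IPTG at 37°C for 18 h. Input plasmids and genomic integration junctions were PCR-amplified and Illumina-sequenced, with two biological output replicates and four wild-type barcodes as reference. Relative integration efficiency is output/input barcode abundance fold change, normalised to wild-type barcodes and log-transformed.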

[2] = tested on: VchCAST RNA-guided transposition machinery (E. coli BL21(DE3) host, lacZ target); assay: relative integration efficiency (T-RL orientation) vs wild-type transposon end (log2 (normalized fold change)); transposon end mutated: left end; higher = more efficient transposition
Outline: as §1

Row | Sequence | relative integration efficiency (log2) [1] | relative integration efficiency (log2) [2]
1 | AATGTTGTTGATGCAACCATAAAGTGATCGGGCATAATTATTTATAATCAGCAACTTAACCACAAAACAACCATATATTGATCGAGAACAAAACAACCATAAGTTGATCGGGGTGTGAATCGAGTATTTCAGCAAAACTACTGCAGTAAGAA | -3.33 ± 1.4 | -3.68 ± 1.3
2 | AATGTTGTTGATGGTTGGTATTTCACTATAAATATAATTATTTATAATCAGCAACTTAACCACAAAAGTTGGTATATAACTATAGAGACAAAAGTTGGTATTCAACTATAAAATGTGAATCGAGTATTTCAGCAAAACTACTGCAGTAAGAA | < -10 | -8.52 ± 0.29
3 | AATGTTGTTGATGCAACCATAAAATGATAATTAATAATTATTTATAATCAGCAACTTAACCACAAAACAACCATAAAATGATAATTATTTTGTCAACCATAAAATGATAATTATGTGAATCGAGTATTTCAGCAAAACTACTGCAGTAAGAA | -1.36 ± 1.1 | -1.39 ± 0.9
4 | AATGTTGTTGATGCAACCATAAAGTGATATTTGCTAGCACTATACCTAGGACTGAGCTAGCCGTCAACAACCATATATTGATATCTCACAAAACAACCATAAGTTGATATTTTTGTGAATCGAGTATTTCAGCAAAACTACTGCAGTAAGAA | < -10 | -5.87 ± 1
5 | AATGTTGTTGATGCACCCATAAATTGATAATTAATAATTATTTATAATCAGCAACTTAACCACAAAACAACCATATATTGATATCTCACAAAAGTTGGTATTCAACTATAAAATGTGAATCGAGTATTTCAGCAAAACTACTGCAGTAAGAA | -1.82 ± 1.9 | -2.76 ± 1.1
6 | AATGTTGTTGATGCAACCATAAAGTGATATTTAATAATTATTTATAATCAGCAACTTAACCACAAAACAACCATAAAGTGATATTTAACAAAAGTTGGTATTCAACTATAAAATGTGAATCGAGTATTTCAGCAAAACTACTGCAGTAAGAA | -0.811 ± 0.85 | -2.53 ± 1.4
7 | AATGTTGTTGATGCAACCATAAAGTGATATTTAAATTGTGAGCGGATAACAATTCTTAACCACAAAACAACCATATATTGATATCTCACAAAACAACCATAAGTTGATATTTTTGTGAATCGAGTATTTCAGCAAAACTACTGCAGTAAGAA | -3.23 ± 0.83 | -3.08 ± 0.73
8 | AATGTTGTTGATGCAACCATATATTGATATCTCATAATTATTTATAATCAGCAACTTAACCACAAAACAACCATAAAATGATAATTAACAAAAGTTGGTATTCAACTATAAAATGTGAATCGAGTATTTCAGCAAAACTACTGCAGTAAGAA | -1.34 ± 1 | -3.2 ± 1.5
9 | AATGTTGTTGATGCAACCATAAAGTGATATTTACCGACTGTCTGCCATCAGCCGCTTAACCGCAGCCCAACCATATATTGATATCTCACAAAACAACCATAAGTTGATATTTTTGTGAATCGAGTATTTCAGCAAAACTACTGCAGTAAGAA | -3.56 ± 0.14 | -3.07 ± 0.93
10 | AATGTTGTTGATGCAACCATAAAGTGATATTTAATAATTATTCAACCATATATTGATATCTCACAAAACAACCATAAGTTGATATTTTTATAATCAGCAACTTAACCACAAAATGTGAATCGAGTATTTCAGCAAAACTACTGCAGTAAGAA | < -10 | -6.852 ± 0.014
11 | AATGTTGTTGATGCAACCATAAAGTGATATTTAATAATTATTTATACAACCATAAAGTGATATTTAACAACCATATATTGATATCTCACAAAACAACCATAAGTTGATATTTTTGTGAATCGAGTATTTCAGCAAAACTACTGCAGTAAGAA | -4.48 ± 0.05 | -6.31 ± 0.44
12 | AATGTTGTTGATGCAACCATAAAGTGATATTTAATAATTATTTATAATCAGCAACTTAACCACAAAACAACCATATAGGTCGCGAGACACCCCACCAACGCCTGGTCGCGGGGGTGTCCGATCTGATTTCAGCAAAACTACTGCAGTAAGAA | -3.44 ± 0.57 | -5.2 ± 1.6
13 | AATGTTGTTGATGCAACCATAAAGTGATATTTAATAATTATTTATAATCAACCATATATTGATATCTCACAAAACAACCATAAGTTGATATTTTTGTGAATCGAGTATTTCAGCAAAACTACTGCAGTAAGAAAGTTACTTCGTGGTATGGG | -4.56 ± 2.6 | -6.16 ± 1.6
